According to publication PMC5558430 (The Biochemical journal, 2017):

Experiments:
[1] = target: T1, GTP cyclohydrolase IB (GCYH-IB) (Neisseria gonorrhoeae, UniProt Q5F9K6); assay: competitive inhibition kinetics, fluorescence assay of neopterin; assay type: biochemical
T1 sequence (Q5F9K6 1-257): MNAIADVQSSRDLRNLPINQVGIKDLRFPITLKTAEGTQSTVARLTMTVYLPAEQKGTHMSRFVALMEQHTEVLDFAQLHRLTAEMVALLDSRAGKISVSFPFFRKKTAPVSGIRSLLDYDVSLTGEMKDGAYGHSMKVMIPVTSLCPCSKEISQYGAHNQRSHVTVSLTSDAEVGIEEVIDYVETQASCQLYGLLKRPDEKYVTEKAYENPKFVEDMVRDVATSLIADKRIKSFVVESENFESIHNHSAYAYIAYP

[2] = target: GTP cyclohydrolase IB (GCYH-IB) (Neisseria gonorrhoeae, UniProt Q5F9K6); assay: X-ray crystal structure at […] Å; assay type: biochemical
[3] = target: Neisseria gonorrhoeae GCYH-IB Cys149Ala mutant (Neisseria gonorrhoeae) (UniProt Q5F9K6); assay: SEC
[4] = target: Neisseria gonorrhoeae GCYH-IB Cys149Ser mutant (Neisseria gonorrhoeae) (UniProt Q5F9K6); assay: SEC
[5] = target: Neisseria gonorrhoeae GCYH-IB Glu152Ala mutant (Neisseria gonorrhoeae) (UniProt Q5F9K6); assay: SEC
[6] = target: Neisseria gonorrhoeae GCYH-IB Glu243Ala mutant (Neisseria gonorrhoeae) (UniProt Q5F9K6); assay: SEC
[7] = target: Neisseria gonorrhoeae GCYH-IB His246Ala mutant (Neisseria gonorrhoeae) (UniProt Q5F9K6); assay: SEC
[8] = target: Neisseria gonorrhoeae GCYH-IB His246Asn mutant (Neisseria gonorrhoeae) (UniProt Q5F9K6); assay: SEC
[9] = target: Neisseria gonorrhoeae GCYH-IB His246Asp mutant (Neisseria gonorrhoeae) (UniProt Q5F9K6); assay: SEC
[10] = target: Neisseria gonorrhoeae GCYH-IB His246Gln mutant (Neisseria gonorrhoeae) (UniProt Q5F9K6); assay: SEC
[11] = target: Neisseria gonorrhoeae GCYH-IB His246Lys mutant (Neisseria gonorrhoeae) (UniProt Q5F9K6); assay: SEC
steady-state kinetics = substrate: Nc1nc2c(ncn2[C@@H]2O[C@H](COP(=O)(O)OP(=O)(O)OP(=O)(O)O)[C@@H](O)[C@H]2O)c(=O)[nH]1; assay: steady-state kinetics; assay type: biochemical, Neisseria gonorrhoeae; conditions: Mn2+ active site
crystal structure = target: the molecule itself; assay: crystal structure

In the case of `Nc1nc2c(ncn2[C@H]2C[C@H](O)[C@@H](COP(=O)(O)OP(=O)(O)OP(=O)(O)O)O2)c(=O)[nH]1` [2′-deoxyGTP], the Ki [1] is reported as 164 µM.

Work on `Nc1nc2c(ccn2[C@@H]2O[C@H](COP(=O)(O)OP(=O)(O)OP(=O)(O)O)[C@@H](O)[C@H]2O)c(=O)[nH]1` [7-deaza-GTP] yielded a Ki [1] of 45.7 µM.

With `Nc1nc2c([nH]c(=O)n2[C@@H]2O[C@H](CO[P@@](=O)(O)O[P@@](=O)(O)OP(=O)(O)O)[C@@H](O)[C@H]2O)c(=O)[nH]1` [8-oxo-GTP] the Ki [2] was 0.149 µM.

With “Neisseria gonorrhoeae GCYH-IB Cys149Ala mutant (from UniProt Q5F9K6 1-257) (enzyme)” the stoichiometry N [3] was 4.

“Neisseria gonorrhoeae GCYH-IB Cys149Ser mutant (from UniProt Q5F9K6 1-257) (enzyme)” was tested, and the stoichiometry N [4] was 4.

Molecule “Neisseria gonorrhoeae GCYH-IB Glu152Ala mutant (from UniProt Q5F9K6 1-257) (enzyme)” has a stoichiometry N [5] of 4.

“Neisseria gonorrhoeae GCYH-IB Glu243Ala mutant (from UniProt Q5F9K6 1-257) (enzyme)” showed a stoichiometry N [6] of 4.

“Neisseria gonorrhoeae GCYH-IB His246Ala mutant (from UniProt Q5F9K6 1-257) (enzyme)” gave a stoichiometry N [7] of 4.

“Neisseria gonorrhoeae GCYH-IB His246Asn mutant (from UniProt Q5F9K6 1-257) (enzyme)” showed a stoichiometry N [8] of 4.

“Neisseria gonorrhoeae GCYH-IB His246Asp mutant (from UniProt Q5F9K6 1-257) (enzyme)” showed a stoichiometry N [9] of 4.

With “Neisseria gonorrhoeae GCYH-IB His246Gln mutant (from UniProt Q5F9K6 1-257) (enzyme)” the stoichiometry N [10] was 4.

“Neisseria gonorrhoeae GCYH-IB His246Lys mutant (from UniProt Q5F9K6 1-257) (enzyme)” gave a stoichiometry N [11] of 4.

B1: GTP cyclohydrolase IB (GCYH-IB) (Neisseria gonorrhoeae FA 1090) (protein)
chain: MNAIADVQSSRDLRNLPINQVGIKDLRFPITLKTAEGTQSTVARLTMTVYLPAEQKGTHMSRFVALMEQHTEVLDFAQLHRLTAEMVALLDSRAGKISVSFPFFRKKTAPVSGIRSLLDYDVSLTGEMKDGAYGHSMKVMIPVTSLCPCSKEISQYGAHNQRSHVTVSLTSDAEVGIEEVIDYVETQASCQLYGLLKRPDEKYVTEKAYENPKFVEDMVRDVATSLIADKRIKSFVVESENFESIHNHSAYAYIAYP
With B1 the Km (steady-state kinetics) was 9.15 µM.

B2: Neisseria gonorrhoeae GTP cyclohydrolase IB, wild type (enzyme)
chain: MNAIADVQSSRDLRNLPINQVGIKDLRFPITLKTAEGTQSTVARLTMTVYLPAEQKGTHMSRFVALMEQHTEVLDFAQLHRLTAEMVALLDSRAGKISVSFPFFRKKTAPVSGIRSLLDYDVSLTGEMKDGAYGHSMKVMIPVTSLCPCSKEISQYGAHNQRSHVTVSLTSDAEVGIEEVIDYVETQASCQLYGLLKRPDEKYVTEKAYENPKFVEDMVRDVATSLIADKRIKSFVVESENFESIHNHSAYAYIAYP
modifications: S-nitrosylated Cys149 (as purified from E. coli)
In the case of B2, the “stoichiometry N” value (crystal structure) is reported as 4.
